Reference: patent US20050239169

T1: SELADIN-1
T1 chain: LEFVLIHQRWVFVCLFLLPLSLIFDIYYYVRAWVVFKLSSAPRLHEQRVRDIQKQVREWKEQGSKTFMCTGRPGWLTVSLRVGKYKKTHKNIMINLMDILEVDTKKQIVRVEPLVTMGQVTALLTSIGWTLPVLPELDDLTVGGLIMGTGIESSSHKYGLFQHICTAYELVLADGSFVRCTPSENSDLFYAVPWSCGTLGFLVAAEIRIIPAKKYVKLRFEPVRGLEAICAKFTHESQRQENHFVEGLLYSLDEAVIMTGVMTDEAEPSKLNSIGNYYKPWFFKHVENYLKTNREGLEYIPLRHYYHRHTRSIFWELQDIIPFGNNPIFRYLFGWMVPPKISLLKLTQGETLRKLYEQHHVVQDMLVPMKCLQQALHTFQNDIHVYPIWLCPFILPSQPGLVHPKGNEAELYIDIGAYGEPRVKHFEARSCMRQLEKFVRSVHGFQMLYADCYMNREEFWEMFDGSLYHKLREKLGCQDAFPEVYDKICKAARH

B1: caspase 6 (protein)
chain: AFYKREMFDPAEKYKMDHRRRGIALIFNHERFFWHLTLPERRGTCADRDNLTRRFSDLGFEVKCFNDLKAEELLLKIHEVSTVSHADADCFVCVFLSHGEGNHIYAYDAKIEIQTLTGLFKGDKCHSLVGKPKIFIIQACRGNQHDVPVIPLDVVDNQTEKLDTNITEVDAASVYTLPAGADFLMCYSVAEGYYSHRETVNGSWYIQDLCEMLGKYGSSLEFTELLTLVNRKVSQRRVDFCKDPSAIGKKQVPCFASMLTKKLHFFPKSN
B2: caspase 3 (protein)
chain: SGISLDNSYKMDYPEMGLCIIINNKNFHKSTGMTSRSGTDVDAANLRETFRNLKYEVRNKNDLTREEIVELMRDVSKEDHSKRSSFVCVLLSHGEEGIIFGTNGPVDLKKITNFFRGDRCRSLTGKPKLFIIQACRGTELDCGIETDSGVDDDMACHKIPVEADFLYAYSTAPGYYSWRNSKDGSWFIQSLCAMLKQYADKLEFMHILTRVNRKVATEFESFSFDATFHAKKQIPCIVSMLTKELYFYH

Target: T1, SELADIN-1

Protein | in vitro cleavage of SELADIN-1 (fragment sizes)
B1 | In vitro cleavage of SELADIN-1 by caspase 3 or 6 generated four different SELADIN-1 fragments of approximately 50, 40, 30 and 20 kDa, respectively
B2 | In vitro cleavage of SELADIN-1 by caspase 3 or 6 generated four different SELADIN-1 fragments of approximately 50, 40, 30 and 20 kDa, respectively
